In general, Kd refers to the constant that tells how readily two partners part at equilibrium. Low readings indicate tighter binding, high ones weaker binding. As usually defined, the koff is a measure of how fast the partners let go of each other. Read a low koff as slow dissociation. One may read the kon as the second-order rate constant of association.

The values below come from patent publication US20110104788A1.

For assay [1], the target named is human coagulation factor X (FX), full-length zymogen (human) (UniProt P00742).
Chain of human coagulation factor X (FX), full-length zymogen (human) (P00742 41-488 limits assumed): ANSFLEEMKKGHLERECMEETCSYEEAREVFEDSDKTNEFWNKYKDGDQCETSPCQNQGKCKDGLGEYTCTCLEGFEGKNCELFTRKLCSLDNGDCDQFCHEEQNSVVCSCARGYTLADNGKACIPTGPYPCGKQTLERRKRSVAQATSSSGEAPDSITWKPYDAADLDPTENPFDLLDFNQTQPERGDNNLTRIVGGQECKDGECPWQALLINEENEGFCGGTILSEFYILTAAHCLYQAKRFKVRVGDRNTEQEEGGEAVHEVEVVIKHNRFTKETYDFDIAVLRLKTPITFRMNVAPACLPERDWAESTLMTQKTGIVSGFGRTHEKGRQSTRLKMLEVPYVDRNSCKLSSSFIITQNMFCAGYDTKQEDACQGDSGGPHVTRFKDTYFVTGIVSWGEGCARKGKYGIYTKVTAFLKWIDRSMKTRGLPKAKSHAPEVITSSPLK
Assay [2] shares this target. Kind of assay: SPR (Biacore T100); human FX immobilised on CM5 chip, inhibitor injected; heterogeneous ligand model.
Assay [3] deals with mouse coagulation factor X (mouse) (UniProt O88947). Briefly: SPR (Biacore T100); mouse FX immobilised on CM5 chip, inhibitor injected; heterogeneous ligand model.
Chain of mouse coagulation factor X (mouse) (O88947 41-481 limits assumed): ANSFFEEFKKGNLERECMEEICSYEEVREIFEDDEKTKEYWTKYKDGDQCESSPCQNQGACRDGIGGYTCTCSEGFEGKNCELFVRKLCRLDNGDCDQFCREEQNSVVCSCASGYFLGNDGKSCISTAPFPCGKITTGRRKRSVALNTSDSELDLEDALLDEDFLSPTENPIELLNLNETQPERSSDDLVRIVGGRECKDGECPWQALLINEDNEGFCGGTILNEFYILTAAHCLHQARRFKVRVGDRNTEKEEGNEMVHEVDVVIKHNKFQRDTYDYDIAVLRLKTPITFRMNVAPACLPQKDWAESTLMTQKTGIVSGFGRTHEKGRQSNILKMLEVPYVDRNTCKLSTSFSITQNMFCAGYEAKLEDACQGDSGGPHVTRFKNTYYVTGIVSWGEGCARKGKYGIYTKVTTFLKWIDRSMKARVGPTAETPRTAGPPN

Read-outs that look alike come from different tables or passages of the source.

Chain of Ixolaris, 12 kDa two-Kunitz domain protein isolated from tick salivary gland (Q964Q0 27-165 limits assumed): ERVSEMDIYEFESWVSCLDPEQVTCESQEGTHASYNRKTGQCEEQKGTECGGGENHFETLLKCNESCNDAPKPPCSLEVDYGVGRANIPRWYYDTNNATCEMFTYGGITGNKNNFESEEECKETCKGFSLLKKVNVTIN

For “Ixolaris, 12 kDa two-Kunitz domain protein isolated from tick salivary gland (from UniProt Q964Q0 27-165) (other; other documents disagree on this pair)”, in assay [1], the Kd is 1.3 nM, the off-rate constant (koff) came to 0.000175 s⁻¹ and the kon is 135000 M⁻¹ s⁻¹.
In the case of “nematode anticoagulant peptide-2 (NAPc2)”, in assay [2], the Kd stood at 0.0728 nM, the koff was 0.000623 s⁻¹ and the on-rate constant (kon) was determined as 8.6e+06 M⁻¹ s⁻¹. In assay [3], the dissociation constant (Kd) is 17 nM, the koff worked out at 0.31 s⁻¹ and the association rate constant (kon) worked out at 1.8e+07 M⁻¹ s⁻¹.
